Test results as given in patent US20220177583A1.

Tests used:
[1] = molecular target: CLDN3/4 endogenously expressed on LS513 and MCF7 cells; experiment: FACS dose curve, labelled mAb, MCF7 cells
[2] = molecular target: CLDN3/4 endogenously expressed on LS513 and MCF7 cells; experiment: FACS dose curve, labelled mAb, LS513 cells
[3] = molecular target: human CLDN6 fused to GFP, expressed on engineered HEK293T cells (human) (UniProt P56747); experiment: FACS dose curve, labelled mAb, HEK293T-CLDN6-mGFP cells
[4] = molecular target: human CLDN6 fused to GFP, expressed on engineered HEK293T cells (human) (UniProt P56747); experiment: FACS, 293T clone with human CLDN6, 0.3 ug Ab
[5] = molecular target: human CLDN6 fused to GFP, expressed on engineered HEK293T cells (human) (UniProt P56747); experiment: FACS, 293T clone with human CLDN6, 1.5 ug Ab

Binder	EC50 [1] [µM]	EC50 [2] [µM]	EC50 [3] [µM]	FACS signal [4]	FACS signal [5]
AB3 (antibody, V domains shown) VH: EVKLEESGGGLVQPGGSMKLSCVASGFTFSNYWMNWVRQSPEKGLEWVAQIRLKSDNYATHYAESVKGRFTISRDDSKRSVYLQMNNLRAEDTGTYYCNDGPPSGCWGQGTTLIVSS VL: DIQMTQSPASLSASVGETVTITCRISENIYSYLAWYQQKQGKSPQLLVYNAKILVEGVPSRFSGSGSGTQFSLKINSLQPEDFGNYYCQHHYTVPWTFGGGTKLEIK	5	5	0.604	–	–
AB2 (antibody, V domains shown) VH: EVKLEESGGGLVQPGGSMKLSCVASGFTFSDYWMNWVRQSPEKGLEWVAQIRLKSDNYATHYAESVKGRFTISRDDSKRSVYLQMNNLRAEDTGTYYCNDGPPSGCWGQGTTLIVSS VL: DIQMTQSPASLSASVGETVTITCRISENIYSYLAWYQQKQGKSPQLLVYNAKILVEGVPSRFSGSGSGTQFSLKINSLQPEDFGNYYCQHHYTVPWTFGGGTKLEIK	5	5	0.182	–	–
AB15 (antibody, V domains shown) VH: DVQLVESGGGLVQPRGSRKLSCAASGFTFSSFGMHWVRQAPEKGLEWVAYISSDSRTIYYADTVKGRFTISRDNPTNTLFLQMTSLRSEDTAMYYCARDYGRTYEAYWGQGTLVTVSA VL: NIMMTQSPSSLAVSAGEKVTMSCKSSQSVLFSSNQKNYLAWYQQKPGQSPRLLIYWASTRESGVPDRFTGSGSGTDFTLTISNVQAEDLAVYYCHQYLSSRTFGAGTKLELK	5	5	5	–	–
AB13 (antibody, V domains shown) VH: QVQLQQSGAELVRPGTSVKVSCKASGYAFSNYLIEWVKQRPGQGLEWIGVINPGSGGTNYNEKFKGKATMTADKSSSTAYMHLSNLTSEDSVVYFCARSYFGRSYPYTMDYWGQGTSVTVSS VL: EIVLTQSPTTMAASPGEKITITCSASSSISSNYLHWYQQKPGFSPKLLIYRTSNLASGVPARFSGSGSGTSYSLTIGTMEAEDVATYYCQQGSSIPLTFGAGTKLELK	5	1.59	5	–	–
AB9 (antibody, V domains shown) VH: EVQLQQSGPELVKPGASVKMSCKASGYRFTDYNMHWVKQSHGKSLEWIGYINPNNGGTNYNQNFKGKATLTVNKSSSTAYMELRSLTSEDSAAYYCARDYLYFFDCWGQGTTLTVSS VL: DIQMTQSPASQSASLGESVTITCLASQTIGTWLAWYQQKPGKSPQLLIYAAASLADGVPSRFSGSGSGTRFSFKISSLQAEDFVSYYCQQLYSIPRTFGGGTKLEIK	5	1.04	2.67	–	–
AB10 (antibody, V domains shown) VH: QIQLVQSGPALKKPGETVKISCKASGYTFTDYSMHWIKQAPGKGLKWMGWISTETGEPTYADGFKGRFDFSLETSADTAYLSINNLTNEDTATYFCTRGLWSSFAYWGQGTLVTVSA VL: DVVMTQTPLSLPVSLGDQASISCRASQSLVHSNGNTYLHWFLQKPGQSPKLLIYKVSNRFSGVPDRFSGSGSRTDFTLKISRVEAEDLGVYFCSQITHVPYTFGGGTKLEIK	5	1.95	2.76	–	–
AB1 (antibody, V domains shown) VH: QVQLQQSAAELARPGASVKMSCKASGYTFTTYTMHWVKQRPGQGLEWIGFINPSSGYTDYNQKFKDRTTLTADKSSSTVYMQLSSLTSEDSAVYYCANGDYYVAYWGQGTLVTVSA VL: QIVLTQSPAIMSASLGERVTMTCTASSSVSSTYFHWYQQKPGSSPKLWIYSTSNLASGVPRRFSGSASGTSYSLTISSMEAEDAATYYCHQYHRSPLTFGAGTKLELK	5	5	0.109	–	–
AB17 (antibody, V domains shown) VH: QVQLQQSGAELAKPGASVKMSCKASGYTFTGYWMHWVKQRPGQGLEWLGYINPSTGYTESNQKFKDKATLTADKSSTTAYMQLRSLTPEDSAVYYCAREGITTVLVDYWGQGTTLTVSS VL: QIVLTQSPAIMSASLGERVTMTCTASSSVSSSYLHWYQQKPGSSPKLWIYSTSNLASGVPARFSGSGSGTSYSLTISSMEAEDAATYYCHQYHRSPPTFGAGTKLELK	5	5	2.65	–	–
AB11-2 (antibody, V domains shown) VH: EVQLVESGGGLVQPGGSLRLSCAASGFTFSSFGMHWVRQAPGKGLEWVAYISSDSRTIYYADSVKGRFTISRDNAKNSLYLQMNSLRAEDTAVYYCARDYGRTYEAYWGQGTLVTVSS VL: DIVMTQSPDSLAVSLGERATINCRASKSVSTSGYSYIHWYQQKPGQPPKLLIYLASNLESGVPDRFSGSGSGTDFTLTISSLQAEDVAVYYCQHSRELPLTFGQGTKLEIK	–	–	–	1290	2560
AB11-3 (antibody, V domains shown) VH: EVQLVESGGGLVQPGGSLRLSCAASGFTFSSFGMHWVRQAPGKGLEWVAYISSDSRTIYYADSVKGRFTISRDNAKNSLYLQMNSLRAEDTAVYYCARDYGRTYEAYWGQGTLVTVSS VL: DIVLTQSPDSLAVSLGERATINCRASKSVSTSGYSYIHWYQQKPGQPPKLLIYLASNLESGVPDRFSGSGSGTDFTLTISSVQAEDVAVYYCQHSRELPLTFGQGTKLELK	–	–	–	1010	2360
AB18 (antibody, V domains shown) VH: QVQLKQSGPELEKPGASVKISCKASGYSFTGYNMNWVKQSNGKSLEWIGNIDPYYGGSTYNQKFTGKATLTVDKSSSTAYMQLKSLTSEDSAVYYCARERSGYVFSAMDYWGQGTSVTVSS VL: NIMMTQSPSSLAVSAGEKVTMSCKSSQSVLFSSNQKNYLAWYQQKPGQSPRLLIYWASTRESGVPDRFTGSGSGTDFTLTISNVQAEDLAVYYCHQYLSSRTFGAGTKLELK	5	5	5	–	–
AB19 (antibody, V domains shown) VH: EVQLQQSGPELVKPGGSMKISCKASGYSFTGYTMNWVKRSHGKNLEWIGLINPYNGVTTYNQNFKGKATLAVDKSSSTAYMELLGLTSEDSAVYYCTRDPLYYGYRDSTMDYWGQGTSVTVSS VL: NIMMTQSPSSLAVSAGEKVTMSCKSSQSVLFSSNQKNYLAWYQQKPGQSPRLLIYWASTRESGVPDRFTGSGSGTDFTLTISNVQAEDLAVYYCHQYLSSRTFGAGTKLELK	5	5	5	–	–

More lines, in order of falling EC50 [1], values ahead:

EC50 [1] [µM]	EC50 [2] [µM]	EC50 [3] [µM]	FACS signal [4]	FACS signal [5]	Binder
5	2.27	5	–	–	AB12 (antibody, V domains shown) VH: EVKLMESGGDLVKPGGSLKLSCAASGFTFSSYAMSWVRQTPEKRLEWVASIRSGGTTYYPDSVKGRFTISRDNARNILYLRMSSLRSEDTAIYYCAKVGGNPYPMDYWGQGTSVTVSS VL: DIQMIQSPSSMFASLGDRVSLSCRASQDIGGNLDWYQQKPGGTIKLLIYSTSNLNSGVPSRFSGSGSGSDYSLTITSLESEDFADYYCLQRNAYPLTFGAGTKLELK
1.49	0.781	0.01	–	–	AB5 (antibody, V domains shown) VH: EVQLQQSGPELVKPGASVKMSCKASGYIFTHYIMHWVKQKPGQGLEWIGCINPYNDGTKYNEKFKGKATLTSDKSSSTAYMELSSLTSEDSAVYYCARYYGYPYYSMDYWGQGTSVTVSS VL: DVLMTQTPLSLPVSLGDQPSISCRSSQSIVHSNGNTYLDWYLQKPGQSPKLLIYKVSNRFSGVPDRFSGSGSGTDFTLKISRVEAEDLGVYYCFQGSHVPFTFGSGTRLEIK
1.14	0.133	1.43	–	–	AB6 (antibody, V domains shown) VH: DVQLQESGPGLVKSSQSLSLTCSVTGYSITSGYYWKWIRQFPGNKLEWMGYISYDGGINYNPSLKNRISITRDTSKNQFFLKLNSVTTEDTAKYYCARFGKGAMDYWGQGTSVTVSS VL: AIVMFQSPSSLVVSAGEKVTMSCKSSQSLLNSRTRKNYLAWYQQKPGQSPKLLIYWASTRESGVPDRFTGSGSGTDFTLTISSVQAEDLAVYYCKQSYYLYTFGGGTKLEIK
0.979	0.635	0.579	–	–	AB7 (antibody, V domains shown) VH: EVQLQQSGPELVKPGASMKISCKASGYSFTGYTMNWVKQSHGKNLEWIGLINPYNGGTNYNQKFKGKATLTVDKSSSTAYMELLSLTSEDSAVYYCARGVYDYDGFTYWGQGTLVTVSA VL: QIVLTQSPAIMSASLGDRVTMTCTASSSVSSSYLHWYQQKPGSSPKLWIYSTSNLASGVPARFSGSGSGTSYSLTISSMEAEDAATYYCHQYHRSPPTFGSGTKLEIK
0.653	0.73	0.017	–	–	AB4 (antibody, V domains shown) VH: QVQLQQSGAELARPGASVKMSCKASGYTFTSYTMHWIKQRPGQGQEWIGYINPSSTYTHYIKKFKDKATLTADKSSSTAYMQLRSLTSEDSAVYYCSRGELGGFAYWGQGTLVTVSA VL: DVVMTQTPLSLPVSLGDQASISCRSSQSLVHSDGNTYLNWYLQKPGQSPKLLIYKVSNRFSGVPDRFSGSGSGTDFTLKIRRVEAEDLGVYFCSQSTHVPYTFGGGTKLEIK
0.546	1.16	5	–	–	AB14 (antibody, V domains shown) VH: QVQLQQSGPELVRPGVSVKISCKGSGYTFTDYAMHWVKQSHAKSLEWIGVISTYSGNTNYNQKFQDKATMTVDKSSSTAYMALARLTSDDSAIYYCARRGDYSLYAMDYWGQGTSVTVSS VL: DIVLTQSPASLAVSLGQRATISCKASQSVDYDGDNYVNWYQQKVGQPPKLLISAASNLESGIPARFSGSGSGTDFTLNIHPVEEEDAATYYCQQSNEDPFTFGSGTKLEIK
0.427	0.493	1.7	–	–	AB11 (antibody, V domains shown) VH: DVQLVESGGGLVQPRGSRKLSCAASGFTFSSFGMHWVRQAPEKGLEWVAYISSDSRTIYYADTVKGRFTISRDNPTNTLFLQMTSLRSEDTAMYYCARDYGRTYEAYWGQGTLVTVSA VL: DIVLTQSPASLAVSLGQRATISCRASKSVSTSGYSYIHWYQQKPGQPPKLLIYLASNLESGVPARFSGSGSGTDFTLNIHPVEEEDAATYYCQHSRELPLTFGAGTKLELK
